Values quoted from earlier work, collected in patent US12194157B2, “Carrier for targeted delivery to a host” (Finncure Oy, priority 2020, dated 2025).

Molecular target: ACE2 (Homo sapiens, UniProt Q9BYF1)
Details: simulation, ref [8]

Sequence of ACE2 (Q9BYF1 18-805): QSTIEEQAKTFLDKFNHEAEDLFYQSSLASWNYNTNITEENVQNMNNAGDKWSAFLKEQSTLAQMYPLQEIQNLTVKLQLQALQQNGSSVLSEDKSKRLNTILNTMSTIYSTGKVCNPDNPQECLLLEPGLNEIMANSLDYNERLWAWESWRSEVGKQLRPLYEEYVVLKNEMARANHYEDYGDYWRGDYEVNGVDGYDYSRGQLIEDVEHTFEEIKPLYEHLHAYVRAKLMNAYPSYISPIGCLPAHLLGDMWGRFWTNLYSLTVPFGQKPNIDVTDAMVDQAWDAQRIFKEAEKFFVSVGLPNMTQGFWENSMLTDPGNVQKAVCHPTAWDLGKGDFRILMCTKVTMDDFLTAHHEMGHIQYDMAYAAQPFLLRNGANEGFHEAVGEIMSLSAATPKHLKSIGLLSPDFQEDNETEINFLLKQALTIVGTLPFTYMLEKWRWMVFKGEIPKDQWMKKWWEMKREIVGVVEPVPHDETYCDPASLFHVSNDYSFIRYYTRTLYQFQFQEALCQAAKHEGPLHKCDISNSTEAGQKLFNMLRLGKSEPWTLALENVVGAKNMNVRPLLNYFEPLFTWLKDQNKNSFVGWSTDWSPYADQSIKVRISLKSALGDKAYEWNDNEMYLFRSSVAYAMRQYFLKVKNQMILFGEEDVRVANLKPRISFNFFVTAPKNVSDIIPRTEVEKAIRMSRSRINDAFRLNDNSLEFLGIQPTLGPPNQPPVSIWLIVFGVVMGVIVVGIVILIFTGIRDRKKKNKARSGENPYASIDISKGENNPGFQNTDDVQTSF

Row | Substance | binding affinity towards the ACE2 receptor relative to YKYRYL
1 | YKYNYI (Potential alternative synthetic hexapeptide variant) [alternative synthetic hexapeptide variant from simulation] | even stronger binding affinity
2 | YKYNYL (Potential alternative synthetic hexapeptide variant) [alternative synthetic hexapeptide variant from simulation] | even stronger binding affinity
